Here are results for one molecule from PMC8115599, “Mechanism of MRX inhibition by Rif2 at telomeres” (Nature Communications, 2021).

This experiment addresses T1, GST-Rif2_(1-60) (S. cerevisiae, UniProt Q06208 1-60).
T1 construct: Rif2, S. cerevisiae, residues 1-60; also called GST-ScRif2_(1-60); Rif2 BAT; source: E. coli BL21 (DE3), purified (GSH Sepharose, Hitrap Heparine)
T1 sequence (looked up): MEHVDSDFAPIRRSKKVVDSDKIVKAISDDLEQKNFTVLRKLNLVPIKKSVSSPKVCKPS
In words: pull-down; GST-Rif2_(1-60), its F8A mutant or GST (10 µg) immobilised on Glutathione Sepharose 4B; Rad50∆CC (30 µg) added in 100 µL 50 mM Tris HCl pH 8, 150 mM NaCl, 1 mM DTT, 0.5 mM EDTA, 10% glycerol, 2 mM MgCl2, benzonase; 120 min at 4 °C; glutathione elution, SDS-PAGE, silver staining. Conditions: both partners purified.

B1: Rad50∆CC, purified (His-SUMO tag removed) (domain or fragment, S. cerevisiae)
chain: MSAIYKLSIQGIRSFDSNDRETIEFGKPLTLIVGMNGSGKTTIIECLKYATTGDLPPNSKGGVFIHDPKITGEKDIRAQVKLAFTSANGLNMIVTRNIQLLMKKTTTTFKTLEGQLVAINNSGDRSTLSTRSLELDAQVPLYLGVPKAILEYVIFCHQEDSLWPLSEPSNLKKKFDEIFQAMKFTKALDKILCYDDIDVYSKALDSAIMKYHGLKMQDINRIIDELWKRTYSGTDIDTIKIRSDEVSSTVKGKSYNYRVVMYKQDVELDMRGRCSAGQKVLASIIIRLALSETFGANCGVIALDEPTTNLDEENIESLAKSLHNIINMRRHQKNFQLIVITHDEKFLGHMNAAAFTDHFFKVKRDDRQKSQIEWVDINRVTY
notes: Rad50, S. cerevisiae, N-terminal Head domain, residues 1-189; residues joining the two Head domains in the Rad50∆CC allele; Rad50, S. cerevisiae, C-terminal Head domain, residues 1125-1312; also called Rad50 ATPase Head; Rad50 Head domains; source: E. coli BL21 (DE3), purified (NiNTA, PD10; tag cleaved with His-SUMO-Protease); not shown: His6-SUMO, N-terminal, cleaved
Consider B1, for which the binding result is “binds”.
